Drawing on paper PMC9065173, this text covers apoptosis of MOLM13 cells after 4 days with T140-KLA-EVs (annexin V / PI staining, flow cytometry); no difference between T140-KLA-EVs and KLA-EVs in CXCR4-negative AsPC-1 cells for one substance.

The assay addresses CXC-chemokine receptor 4 (CXCR4) (human (endogenous in MOLM13 and CEM)) (UniProt P61073).
UniProt P61073, sequence (P61073 whole entry): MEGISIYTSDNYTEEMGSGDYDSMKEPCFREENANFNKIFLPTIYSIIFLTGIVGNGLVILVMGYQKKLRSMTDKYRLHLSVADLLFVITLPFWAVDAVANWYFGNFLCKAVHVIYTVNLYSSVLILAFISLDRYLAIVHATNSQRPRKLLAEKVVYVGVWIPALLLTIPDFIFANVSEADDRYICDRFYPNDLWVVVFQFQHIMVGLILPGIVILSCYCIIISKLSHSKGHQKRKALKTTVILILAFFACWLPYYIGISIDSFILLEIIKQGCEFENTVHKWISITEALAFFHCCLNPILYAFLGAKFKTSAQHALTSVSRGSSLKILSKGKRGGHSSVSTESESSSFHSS

As for “bifunctional T140-KLA peptide, ligated onto the RBCEV surface (T140-KLA-EVs)”, the apoptosis of MOLM13 cells after 4 days with T140-KLA-EVs (annexin V / PI staining, flow cytometry); no difference between T140-KLA-EVs and KLA-EVs in CXCR4-negative AsPC-1 cells is > 50%.
